This is an account of results in patent US20230087785A1, “Leucine-Rich Repeat Kinase 2 Allosteric Modulators” (VIB VZW, priority 2020, published 2023).

Assay [1] has as its target T1, LRRK2 kinase-WD40 domain construct (human, UniProt Q5S007 1876-2527).
T1 construct: also called K-WD40; not shown: N-terminal His-tag (pFastBac)
T1 sequence: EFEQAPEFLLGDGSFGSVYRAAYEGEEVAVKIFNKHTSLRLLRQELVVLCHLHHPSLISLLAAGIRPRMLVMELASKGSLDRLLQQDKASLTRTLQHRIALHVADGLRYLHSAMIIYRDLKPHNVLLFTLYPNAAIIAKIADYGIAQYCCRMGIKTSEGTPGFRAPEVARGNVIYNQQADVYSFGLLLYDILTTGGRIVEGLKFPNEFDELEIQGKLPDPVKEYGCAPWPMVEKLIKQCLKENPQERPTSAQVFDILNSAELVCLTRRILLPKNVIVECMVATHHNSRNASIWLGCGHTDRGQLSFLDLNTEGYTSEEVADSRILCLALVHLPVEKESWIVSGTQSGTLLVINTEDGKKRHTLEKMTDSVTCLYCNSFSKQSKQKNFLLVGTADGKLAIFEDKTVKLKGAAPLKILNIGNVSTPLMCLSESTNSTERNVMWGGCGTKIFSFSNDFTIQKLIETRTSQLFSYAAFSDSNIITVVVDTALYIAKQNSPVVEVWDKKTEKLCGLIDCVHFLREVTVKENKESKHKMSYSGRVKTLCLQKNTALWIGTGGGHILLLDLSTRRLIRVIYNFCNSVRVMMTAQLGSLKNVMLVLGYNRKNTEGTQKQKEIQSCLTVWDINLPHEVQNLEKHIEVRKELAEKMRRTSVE
In words: ELISA, antigen coated on the plate, purified Nb detected via its EPEA tag. The text has this: (§1) We recombinantly expressed and purified the RocCOR, Roc, COR-B and kinase-WD40 (K-WD40) domain constructs of LRRK2 (FIG. 7). Subsequently, we performed an ELISA in which all these domain constructs were coated in parallel next to each other in the same ELISA plate, and where we subsequently detected binding of the 42 purified Nbs. […] To enrich in Nbs directed against the Roc domain we specifically included a selection step with either Roc-GTPγS or Roc-GDP.

In assay [2] the target is T2, LRRK2 Roc domain construct (human, UniProt Q5S007 1329-1520).
T2 construct: not shown: N-terminal His6-tag of pET-28a
T2 sequence: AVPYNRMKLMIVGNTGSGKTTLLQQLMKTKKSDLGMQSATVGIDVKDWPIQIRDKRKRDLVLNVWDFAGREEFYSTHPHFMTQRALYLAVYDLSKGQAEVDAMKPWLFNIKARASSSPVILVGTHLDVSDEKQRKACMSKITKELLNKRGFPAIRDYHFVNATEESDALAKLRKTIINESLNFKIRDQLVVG
Described as above.
Source text: as §1

The target of assay [3] is T3, LRRK2 COR-B construct (C-terminal part of the COR domain), His6-MBP tagged (human, UniProt Q5S007 1672-1840).
T3 construct: also called (MBP-)COR-B; not shown: N-terminal His6-MBP-tag of pDEST-566
Described as above.
Source text: as §1

Assay [4] has as its target T4, LRRK2 RocCOR domain construct (human, UniProt Q5S007 1334-1840).
T4 construct: A second construct (residues 1293-1840, N-terminal His6-MBP) was used in certain screening experiments; not shown: N-terminal Twin-Strep-tag; C-terminal His10-tag
T4 sequence: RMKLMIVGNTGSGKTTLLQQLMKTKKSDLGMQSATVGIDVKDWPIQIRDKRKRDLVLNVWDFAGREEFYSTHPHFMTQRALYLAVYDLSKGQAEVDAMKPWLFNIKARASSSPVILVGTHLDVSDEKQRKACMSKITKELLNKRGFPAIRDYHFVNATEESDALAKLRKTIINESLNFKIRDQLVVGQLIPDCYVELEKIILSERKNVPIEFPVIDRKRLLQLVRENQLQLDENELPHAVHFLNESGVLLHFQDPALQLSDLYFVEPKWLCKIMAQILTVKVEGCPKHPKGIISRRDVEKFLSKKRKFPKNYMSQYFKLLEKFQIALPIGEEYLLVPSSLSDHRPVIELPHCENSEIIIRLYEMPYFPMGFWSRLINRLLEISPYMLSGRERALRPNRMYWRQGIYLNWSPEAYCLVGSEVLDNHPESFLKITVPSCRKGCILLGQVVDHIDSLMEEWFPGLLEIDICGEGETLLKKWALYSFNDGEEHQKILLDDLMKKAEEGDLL
Described as above.
Source text: as §1

In assay [5] the target is T5, Full-length human Leucine-rich repeat kinase 2 (LRRK2), N-terminal Strep/Flag (SF) tagged (human, UniProt Q5S007 1-2527).
T5 construct: Purified from HEK293T cells in presence of GDP or GTPγS; also called FL LRRK2; FL-LRRK2
T5 sequence (Q5S007 other isoform, or with tags, fused parts or gaps limits assumed): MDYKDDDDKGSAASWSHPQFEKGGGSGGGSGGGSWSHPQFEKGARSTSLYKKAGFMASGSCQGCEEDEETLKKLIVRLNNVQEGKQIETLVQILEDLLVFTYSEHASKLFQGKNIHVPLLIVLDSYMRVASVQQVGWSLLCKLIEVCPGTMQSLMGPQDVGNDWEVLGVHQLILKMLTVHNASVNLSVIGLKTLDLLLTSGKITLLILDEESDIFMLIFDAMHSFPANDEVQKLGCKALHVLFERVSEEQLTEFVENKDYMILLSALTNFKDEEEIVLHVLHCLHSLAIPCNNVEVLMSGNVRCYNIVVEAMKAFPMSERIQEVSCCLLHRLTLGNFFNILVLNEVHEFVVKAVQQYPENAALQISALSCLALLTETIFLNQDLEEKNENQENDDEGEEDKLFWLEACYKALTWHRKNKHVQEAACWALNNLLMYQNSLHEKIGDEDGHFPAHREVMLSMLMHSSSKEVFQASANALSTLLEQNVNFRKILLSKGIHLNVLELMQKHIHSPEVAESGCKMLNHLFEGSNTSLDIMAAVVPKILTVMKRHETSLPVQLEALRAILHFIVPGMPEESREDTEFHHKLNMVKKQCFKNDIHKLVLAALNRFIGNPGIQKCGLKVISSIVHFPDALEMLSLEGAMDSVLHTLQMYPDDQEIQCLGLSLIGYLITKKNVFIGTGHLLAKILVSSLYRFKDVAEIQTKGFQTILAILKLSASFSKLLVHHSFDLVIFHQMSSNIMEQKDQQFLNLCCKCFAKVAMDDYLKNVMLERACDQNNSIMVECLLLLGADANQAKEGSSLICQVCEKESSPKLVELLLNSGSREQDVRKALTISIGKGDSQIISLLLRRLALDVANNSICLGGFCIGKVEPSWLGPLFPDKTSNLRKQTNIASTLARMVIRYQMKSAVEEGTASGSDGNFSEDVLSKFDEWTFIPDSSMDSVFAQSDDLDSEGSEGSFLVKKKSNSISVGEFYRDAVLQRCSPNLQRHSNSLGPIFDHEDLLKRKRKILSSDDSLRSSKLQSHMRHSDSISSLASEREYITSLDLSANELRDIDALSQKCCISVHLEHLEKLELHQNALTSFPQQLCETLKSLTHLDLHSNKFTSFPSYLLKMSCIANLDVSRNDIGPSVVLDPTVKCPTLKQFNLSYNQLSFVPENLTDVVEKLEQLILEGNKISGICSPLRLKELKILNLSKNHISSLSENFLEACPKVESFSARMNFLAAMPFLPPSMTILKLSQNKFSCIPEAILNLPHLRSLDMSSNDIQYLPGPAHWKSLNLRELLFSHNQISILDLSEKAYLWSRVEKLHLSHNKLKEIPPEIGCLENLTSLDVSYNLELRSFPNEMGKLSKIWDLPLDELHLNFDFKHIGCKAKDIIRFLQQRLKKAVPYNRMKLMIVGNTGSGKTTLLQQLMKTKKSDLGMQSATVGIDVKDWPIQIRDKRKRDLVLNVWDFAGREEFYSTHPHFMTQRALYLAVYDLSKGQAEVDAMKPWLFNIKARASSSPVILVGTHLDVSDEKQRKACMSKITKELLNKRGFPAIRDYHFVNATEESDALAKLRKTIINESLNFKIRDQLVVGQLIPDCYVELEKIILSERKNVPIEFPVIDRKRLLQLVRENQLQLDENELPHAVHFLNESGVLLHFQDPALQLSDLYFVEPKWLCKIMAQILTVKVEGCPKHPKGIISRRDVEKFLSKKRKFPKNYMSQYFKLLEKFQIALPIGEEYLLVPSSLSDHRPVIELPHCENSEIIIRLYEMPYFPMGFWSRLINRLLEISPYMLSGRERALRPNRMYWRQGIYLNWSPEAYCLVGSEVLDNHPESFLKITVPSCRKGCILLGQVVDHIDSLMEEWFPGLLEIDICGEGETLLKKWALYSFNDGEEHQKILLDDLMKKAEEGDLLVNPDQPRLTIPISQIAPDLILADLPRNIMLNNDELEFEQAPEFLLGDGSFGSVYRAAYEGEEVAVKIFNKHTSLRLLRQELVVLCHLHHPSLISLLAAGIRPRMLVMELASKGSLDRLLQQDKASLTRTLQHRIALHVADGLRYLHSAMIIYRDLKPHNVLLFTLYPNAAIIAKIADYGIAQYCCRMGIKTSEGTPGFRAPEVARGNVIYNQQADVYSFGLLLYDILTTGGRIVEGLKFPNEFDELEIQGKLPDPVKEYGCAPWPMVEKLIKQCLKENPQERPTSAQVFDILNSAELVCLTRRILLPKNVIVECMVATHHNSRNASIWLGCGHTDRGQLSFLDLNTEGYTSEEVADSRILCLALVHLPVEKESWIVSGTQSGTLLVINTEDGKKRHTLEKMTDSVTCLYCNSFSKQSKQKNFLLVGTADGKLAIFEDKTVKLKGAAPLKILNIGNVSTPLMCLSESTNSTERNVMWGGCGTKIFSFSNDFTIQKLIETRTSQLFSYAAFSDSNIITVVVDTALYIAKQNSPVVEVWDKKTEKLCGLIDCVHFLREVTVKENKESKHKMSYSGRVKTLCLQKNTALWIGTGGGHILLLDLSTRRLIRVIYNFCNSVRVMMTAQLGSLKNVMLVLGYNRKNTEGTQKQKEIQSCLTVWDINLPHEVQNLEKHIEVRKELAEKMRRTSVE
In words: MST; LRRK2 titrated to m-TAMRA-labelled Nb, 500 µM GDP. How it is done: Microscale thermophoresis (MST) experiments were performed for determining equilibrium binding affinities (KD) of Nbs binding to FL-LRRK2. Therefore, Nb were site-specifically labelled at their C-terminus with m-TAMRA, using Sortase-mediated peptide exchange. The Nbs were recloned into a pHEN29 vector which is subsequently used to express and purify the Nbs with a C-terminal LPETGG-His₆-EPEA tag. Exchange of the latter peptide with an m-TAMRA-labeled GGGYK peptide (GenicBio, Shanghai, China) was performed using Sortase, and unlabeled Nb and unincorporated peptide were removed using a Ni-NTA and SEC purification step, respectively. […] After incubation at 4° C. for 30 mins, samples were loaded in capillaries and measurements were performed at 25° C. using 50-70% LED power and 80% laser intensity (laser on-time: 30 s, laser off-time: 5 s). All experiments were performed in triplicate.

In assay [6] the target is T5, Full-length human Leucine-rich repeat …. Put plainly: BLI; Nb on LRRK2 trapped on streptavidin sensor via biotinylated Nb40; steady-state fit. The procedure:
To determine the binding affinity (dissociation constant KD) of the ten Nbs for LRRK2, two methods were used in parallel: microscale thermophoresis (MST) and bio-layer interferometry (BLI). For the MST experiment, we site-specifically labeled the ten Nbs with a m-TAM RA fluorophore at its C-terminus, using sortase-mediated coupling, and then titrated increasing amounts of full-length LRRK2 to these Nbs (FIGS. 13A-13E).
Biolayer interferometry (BLI) measurements were performed using an Octet Red96 (Forte Bio, Inc.) system in a buffer containing 50 mM HEPES pH 8.0, 150 mM NaCl, 10 mM MgCl₂, 5% glycerol, 0.1% BSA, 0.05% Tween, at 25° C. and with shaking speed 1000 rpm. […] The biotinylated Nbs were first loaded on pre-equilibrated SA biosensors at a concentration of 5 μg/mL. This Nb-loaded sensor was then used to trap FL-LRRK2 from a 50 nM LRRK2 solution. […] All experiments were performed in triplicate.

For assay [7], the target named is T3, LRRK2 COR-B construct (C-terminal part …). In words: ELISA, purified Nb on coated domain constructs.
Source text: as §1

Assay [8] concerns the target T1, LRRK2 kinase-WD40 domain construct. In words: ELISA, purified Nb on coated domain constructs.
Source text: as §1

Assay [9] concerns the target T2, LRRK2 Roc domain construct. In words: ELISA, purified Nb on coated domain constructs.
Source text: as §1

Assay [10] has as its target T4, LRRK2 RocCOR domain construct. Put plainly: ELISA, purified Nb on coated domain constructs.
Source text: as §1

B1: Nb3 (CA12614) (VHH)
VHH: QVQLVESGGGLVQPGGSLRLSCAASGSIFRRNAMGWYRQVTGKERELVAGITSGGYTNYRDFVKGRFTISRDNAKNTVYLQMNNLKPEDTAVYYCNLLSEMLQTVWGQGTQVTVSS
For B1, the binding result in assay [1] and in [2] was “no binding (tested: not given)” throughout.

B2: Nb22 (CA13611) (VHH)
VHH: QVQLVESGGGLVQAGGSLRLSCAASGRTFSSYTMGWFRQAPGKEREFVAAIRWSGGSTYYADSVKGRFTISRDNAKNTVYLQMNSLKPEDTAVYYCAASDRGGFIATSGGWMDYWGKGTQVTVSS
B2: the binding result in [3], in assay [2] and in assay [4] was “no binding (tested: not given)” in each case. Moreover, the Kd in assay [5] is 145 nM; in [6], 76 nM.

B3: Nb35 (CA16072) (VHH)
VHH: QVQLVESGGGLVQPGGSLRLSCAASGFPFSTYYMSWVRQAPGKGLEWVSAISPGGDTAYADSVKDRFTISRDSAKNTVYLQMSSLKPEDTAVYYCAAVRFLRAPDLTEKRLYEYWGQGTQVTVSS
In the case of B3, the binding result in assay [3], in assay [1] and in [4] was “no binding (tested: not given)” in each case.

B4: Nb39 (CA14134) (VHH)
VHH: QVQLVESGGGLVQAGGSLRLSCRASGGTFSTYAMGWFRQVPGKERETVAAVKWSGDMTYYADSVKGRFTISRDNAKNTVYLQMNSLRPEDTAVYYCAARRGLSYYRGPSEYDYWGQGTQVTVSS
Turning to B4, the binding result in assay [7], in assay [8], in [9] and in [10] was “no binding” throughout. Besides, the Kd in assay [5] turned out to be 79 nM; in assay [6], 21 nM.

B5: Nb37 (CA14131) (VHH)
VHH: QVQLVESGGGLVQPGGSLRLSCAASGSVFSTNTMAWFRQAPGKQREWVGGITPGGFTNYINSVKGRFTISRDNANNTIYLQMSSLRPEDTAVYYCNTLSRMALWGQGTQVTVSS
As for B5, the binding result in [7], in [8], in [9] and in assay [10] was “no binding” each time.

B6: Nb36 (CA14130) (VHH)
VHH: QVQLVESGGGLVQPGGSLRLSCAASGSIRSITTSAWFRQPPGKQRELVAGISSGTSTNYADSVKGRFTISRDNAKNTVYLQMNSLKPEDTAVYYCHVWISGTWYSGQGTQVTVSS
In the case of B6, the binding result in assay [7], in assay [8], in assay [9] and in assay [10] was “no binding” in each case. Also, the figures for the Kd in assay [5] and in [6] were 78 nM and 51 nM, respectively.

B7: Nb38 (CA14133) (VHH)
VHH: QVQLVESGGGLVQPGGSLRLSCAASGSIRSIATSAWYRQPPGKQRELVAGISSGTTTNYADSVKGRFTISRDNAKNTVYLQMNSLKPEDTAVYYCHAWISGTWISGQGTQVTVSS
In the case of B7, the binding result in assay [7], in assay [8], in assay [9] and in assay [10] was “no binding” each time. The results for the Kd in assay [5] and in assay [6] were 48 nM and 86 nM, respectively.

B8: Nb17 (CA13606) (VHH)
VHH: QVQLVESGGGLVQPGGSLRLSCAASGSNIGYMAWYRQAPGSQRELVARIASGGSANYADSVKGRFTISRDNVKNTVYLHMNSLKPVDTAVYYCHADAWYNSRWSDYWGQGTQVTVSS
For B8, the binding result in assay [7], in assay [8], in assay [9] and in assay [10] was “no binding” in each case. Moreover, the Kd was 67 nM in assay [5] and 11 nM in assay [6].
